Assay results: FireProtDB (doi:10.1038/s41598-020-57873-3)

B1: T404P, Q8GB52 (parent)
chain: MLKKVLSCCIAATFGIYSASSLAQSSVINSTENSQQPIAPLVLASSDDAITDRYIVVLKQPQMLMNDAAGLQQFTQQTVGLMANSFSIKTDDVFDSSIIGFVANLDALQLKQLRRDSRVEYIEQDQILSIDPVVSNEAVQSNAIWGLDRIDQRNLPLDRNYNANFDGFGVTAYVIDTGVNNNHEEFGGRSVSGYDFVDNDADSSDCNGHGTHVAGTIGGSQYGVAKNVNIVGVRVLSCSGSGTTSGVISGVDWVAQNASGPSVANMSLGGGQSTALDSAVQGAIQSGVSFMLAAGNSNADACNTSPARVPSGVTVGSTTSSDSRSSFSNWGSCVDLFAPGSQIKSAWYDGGYKTISGTSMATPHVAGVAALYLQENNGLTPLQLTGLLNSRASENKVSDTRGTTNKLLYSLADSGCEPDCGGPTPGPDPDGKLVSGVPVNGLSGSRGQKDYFYMDLQQGQQLTVVTIGGTGDADLYLRFGDKPTLNTWDCRPYRSGNSETCTVNVTQSGRYHVMLNAYSAYSGLTLQANF

Variants of: B1
Conditions: Vibrio sp. PA-44, pH 8.6, Thermal, structure 1SH7, whole UniProt chain shown
[1] = CD, Glycine 25 mM, NaCl and CaCl2 100 mM and 15 mM
[2] = DSC, Glycine 25 mM, NaCl and CaCl2 100 mM and 15 mM
[3] = DSC, glycine, Nacl / Cacl2 100000 / 15000, transition: 2, reversible: no
[4] = CD, glycine, Nacl / Cacl2 100000 / 15000, transition: 2, reversible: no

| Variant | Tm [1] [°C] | change of melting temperature, mutant - wild type (higher = more stable) [1] [°C] | Tm [2] [°C] | change of melting temperature, mutant - wild type (higher = more stable) [2] [°C] | unfolding enthalpy (calorimetric) [2] [kcal/mol] | Tm [3] [°C] | change of melting temperature, mutant - wild type (higher = more stable) [3] [°C] | unfolding enthalpy (calorimetric) [3] [kcal/mol] | Tm [4] [°C] | change of melting temperature, mutant - wild type (higher = more stable) [4] [°C] |
| --- | --- | --- | --- | --- | --- | --- | --- | --- | --- | --- |
| MLKKVLSCCIAATFGIYSASSLAQSSVINSTENSQQPIAPLVLASSDDAITDRYIVVLKQPQMLMNDAAGLQQFTQQTVGLMANSFSIKTDDVFDSSIIGFVANLDALQLKQLRRDSRVEYIEQDQILSIDPVVSNEAVQSNAIWGLDRIDQRNLPLDRNYNANFDGFGVTAYVIDTGVNNNHEEFGGRSVSGYDFVDNDADSSDCNGHGTHVAGTIGGSQYGVAKNVNIVGVRVLSCSGSGTTSGVISGVDWVAQNASGPSVANMSLGGGQSTALDSAVQGAIQSGVSFMLAAGNSNADACNTSPARVPSGVTVGSTTSSDSRSSFSNWGSCVDLFAPGSQIKSAWYDGGYKTISGTSMATPHVAGVAALYLQENNGLTPLQLTGLLNSRASENKVSDTRGTPNKLLYSLADSGCEPDCGGPTPGPDPDGKLVSGVPVNGLSGSRGQKDYFYMDLQQGQQLTVVTIGGTGDADLYLRFGDKPTLNTWDCRPYRSGNSETCTVNVTQSGRYHVMLNAYSAYSGLTLQANF [T404P] | 61.6 | -0.3 | 64.5 | 0.6 | 108 | 64.5 | 0.6 | 108 |  |  |
| MLKKVLSCCIAATFGIYSASSLAQSSVINSTENSQQPIAPLVLASSDDAITDRYIVVLKQPQMLMNDAAGLQQFTQQTVGLMANSFSIKTDDVFDSSIIGFVANLDALQLKQLRRDSRVEYIEQDQILSIDPVVSNEAVQSNAPWGLDRIDQRNLPLDRNYNANFDGFGVTAYVIDTGVNNNHEEFGGRSVSGYDFVDNDADSSDCNGHGTHVAGTIGGSQYGVAKNVNIVGVRVLSCSGSGTTSGVISGVDWVAQNASGPSVANMSLGGGQSTALDSAVQGAIQSGVSFMLAAGNSNADACNTSPARVPSGVTVGSTTSSDSRSSFSNWGSCVDLFAPGSQIKSAWYDGGYKTISGTSMATPHVAGVAALYLQENNGLTPLQLTGLLNSRASENKVSDTRGTTNKLLYSLADSGCEPDCGGPTPGPDPDGKLVSGVPVNGLSGSRGQKDYFYMDLQQGQQLTVVTIGGTGDADLYLRFGDKPTLNTWDCRPYRSGNSETCTVNVTQSGRYHVMLNAYSAYSGLTLQANF [I144P] | 65.1 | 3.2 | 65.7 | 1.8 | 137 | 65.7 | 1.8 | 136 | 65.1 | 3.2 |
| MLKKVLSCCIAATFGIYSASSLAQSSVINSTENSQQPIAPLVLASSDDAITDRYIVVLKQPQMLMNDAAGLQQFTQQTVGLMANSFSIKTDDVFDSSIIGFVANLDALQLKQLRRDSRVEYIEQDQILSIDPVVSNEAVQSNAIWGLDRIDQRNLPLDRNYNANFDGFGVTAYVIDTGVNNNHEEFGGRSVSGYDFVDNDADSSDCNGHGTHVAGTIGGSQYGVAKNVNIVGVRVLSCSGSGTTSGVISGVDWVAQNASGPSVANMSLGGGQSTALDSAVQGAIQSGVSFMLAAGNSNADACNTSPARVPSGVTVGSTTSSDSRSSFSNWGSCVDLFAPGSQIKSAWYDGGYKTISGTSMATPHVAGVAALYLQENPGLTPLQLTGLLNSRASENKVSDTRGTTNKLLYSLADSGCEPDCGGPTPGPDPDGKLVSGVPVNGLSGSRGQKDYFYMDLQQGQQLTVVTIGGTGDADLYLRFGDKPTLNTWDCRPYRSGNSETCTVNVTQSGRYHVMLNAYSAYSGLTLQANF [N377P] |  |  | 63.6 | -0.3 | 133 | 63.6 | -0.3 | 133 | 60.7 | -1.2 |
